According to patent publication US20060198851A1 (Janssen / Centocor, published 2006):
No end group written: not given here.

T1: biotinylated DAE peptide (immobilized Aβ peptide) (human, UniProt P05067 672-681, limits assumed, also: biotinylated, site not given here)
T1 construct: domain: Aβ peptide (bio-DAE peptide; bio-DAE10); Immobilized on streptavidin biosensor chips for BIAcore; also called bio-DAE peptide; bio-DAE10
T1 peptide (looked up): DAEFRHDSGY

B1: humanized 12A11 version 1 (antibody, V domains shown)
VH: QVQLVESGGGVVQPGRSLRLSCAFSGFSLSTSGMSVGWIRQAPGKGLEWLAHIWWDDDKYYNPSLKSRLTISKDTSKNTVYLQMNSLRAEDTAVYYCARRTTTADYFAYWGQGTTVTVSS
VL: DVVMTQSPLSLPVTPGEPASISCRSSQSIVHSNGNTYLEWYLQKPGQSPQLLIYKVSNRFSGVPDRFSGSGSGTDFTLKISRVEAEDVGVYYCFQSSHVPLTFGQGTKLEIK
notes: Variable domains only; also called h12A11v1; 12A11v1
B2: humanized 3D6 (antibody, V domains shown)
VH: EVQLVESGGGLVQPGGSLRLSCAGSGFTFSNYGMSWVRQAPGKGLEWVASIRSGGGRTYYSDNVKGRFTISRENAKNSLYLQMNSLRAEDTAVYYCVRYDHYSGSSDYWGQGTLVTVSS
VL: DVVMTQSPLSLPVTLGQPASISCKSSQSLLDSDGKTYLNWLQQRPGQSPRRLIYLVSKLDSGVPDRFSGSGSGTDFTLKISRVEAEDVGVYYCWQGTHFPRTFGGGTKVEIKR

What was measured:
[1] = target: T2, synthetic Aβ1-42 (aggregated in the ELISAs) (human, UniProt P05067 672-713); assay: competitive Aβ1-42 ELISA, competitor biotin conjugated m12A11Cγ2a (FIG. 12)
T2 construct: range 672-713; also called aggregated Aβ1-42; aggregated synthetic Aβ1-42

[2] = target: T2, synthetic Aβ1-42 (aggregated in the …); assay: competitive Aβ1-42 ELISA; competitor: biotin conjugated m12A11Cγ2a at a fixed concentration
[3] = target: T1, biotinylated DAE peptide (immobilized …); assay: BIAcore (SPR), biotinylated DAE peptide on streptavidin chip, antibody in solution; bivalent model, global analysis
[4] = target: T2, synthetic Aβ1-42 (aggregated in the …); assay: Aβ 1-42 binding ELISA

Binder	IC50 fold against murine and chimeric 12A11 [1] [fold]	IC50 (read off the curve) [2] [µg/mL]	Ka [3] [M⁻¹]	Kd [3] [nM]	koff [3] [s⁻¹]	kon [3] [M⁻¹ s⁻¹]	EC50 (read off the curve) [4] [µg/mL]
B1	≤ 2	~1	4.29e+07	23.3	0.00343	147000	
B2							~0.04
